Measured values published in PMC8626535.

B1: Soluble monomeric B7H6-His (domain or fragment)
chain: DLKVEMMAGGTQITPLNDNVTIFCNIFYSQPLNITSMGITWFWKSLTFDKEVKVFEFFGDHQEAFRPGAIVSPWRLKSGDASLRLPGIQLEEAGEYRCEVVVTPLKAQGTVQLEVVASPASRLLLDQVGMKENEDKYMCESSGFYPEAINITWEKQTQKFPHPIEISEDVITGPTIKNMDGTFNVTSCLKLNSSQEDPGTVYQCVVRHASLHTPLRSNFTLTAARHSLSETEKTDNFS

How the values were obtained:
[1] = biological target: NKp30-Fc (human) (UniProt O14931); assay: BLI
[2] = biological target: CC3-Fc (human) (UniProt O14931); assay: BLI

Row | Molecule | Kd [1] [nM] | Kd [2] [nM]
1 | Soluble monomeric B7H6-His (from UniProt Q68D85 25-262) (domain or fragment) | 1300 | 
2 | B1 |  | 680
